Measurements: patent US20160207991A1
Where two headings read alike, the source gives them in different places.

How the values were obtained:
[1] = molecular target: human brain-derived neurotrophic factor (BDNF) (human) (UniProt P23560); experiment: cell-based or functional assay
[2] = molecular target: human brain-derived neurotrophic factor (BDNF) (human) (UniProt P23560); experiment: cell-based or functional assay; remark: listed apart in the source

human brain-derived neurotrophic factor (BDNF) (human), sequence (P23560 129-247 limits assumed): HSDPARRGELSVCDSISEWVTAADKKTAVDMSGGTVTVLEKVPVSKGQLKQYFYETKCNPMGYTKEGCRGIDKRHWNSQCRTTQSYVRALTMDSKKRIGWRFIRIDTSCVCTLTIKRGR

PathHunter pTrkB assay in U2OS TrkB/p75NTR cells, 300 pM BDNF [1]: 24 nM
pERK assay in U2OS TrkB/p75NTR cells, 150 pM BDNF [1]: 7.6 nM
PathHunter pTrkB assay in U2OS TrkB/p75NTR cells, 300 pM BDNF [2]: 4.4 nM
Substance: TrkB-Fc (Sigma T8694) (from UniProt P15209 32-429) (Fc fusion)
